This is an account of results in US20030021776.

As usually defined, the Kd is a measure of binding affinity in units of concentration. A low value points to tighter binding.

Data set [1] concerns SAN 16A (synthetic). The data set can be described thus: EMSA.
Data set [2] concerns the target HBV 3 (synthetic) (UniProt P08047). Description: EMSA. On the technique in general: In EMSA bound probe runs differently from free probe, usually more slowly.
Data set [3] has as its target ZEN-7A 1 (VZ-573) (synthetic) (UniProt P08047). Description: EMSA.
The subject of data set [4] is EP10A (synthetic). The data set can be described thus: EMSA.
For data set [5], the target named is VEGF 1D (synthetic) (UniProt P08047). The data set can be described thus: EMSA.
Data set [6] deals with VG 8A (VZ-475) (synthetic). Description: EMSA.
Sequence of VG 8A (VZ-475) (synthetic) (chain, as listed by the source): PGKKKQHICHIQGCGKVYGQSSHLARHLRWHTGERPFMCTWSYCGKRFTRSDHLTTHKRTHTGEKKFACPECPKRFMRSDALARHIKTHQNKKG
Data set [7] has as its system mVZ+57 (VG10A/8A, MVG) (synthetic). The data set can be described thus: EMSA. Particulars: text printed as Kds of 0.031 nM for the designed ZFPs; 100 mM KCl, 1 mM MgCl2, Zn.
Data set [8] deals with HP38 4A (synthetic). Description: EMSA.
Sequence of HP38 4A (synthetic) (chain, as listed by the source): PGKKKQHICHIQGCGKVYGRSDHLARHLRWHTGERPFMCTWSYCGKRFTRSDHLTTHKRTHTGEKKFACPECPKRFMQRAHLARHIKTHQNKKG
Data set [9] deals with GATA82Z678 (synthetic). Description: EMSA.
Sequence of GATA82Z678 (synthetic) (chain, as listed by the source): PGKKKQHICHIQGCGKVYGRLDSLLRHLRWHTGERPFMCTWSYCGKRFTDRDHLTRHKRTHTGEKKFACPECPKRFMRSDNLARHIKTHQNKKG
Data set [10] has as its system PDF 5A (VZ+590) (synthetic). The data set can be described thus: EMSA.
For data set [11], the target named is VEGF 1C (synthetic) (UniProt P08047). The data set can be described thus: EMSA.
For data set [12], the system named is VG10A/8A-VP16 (synthetic). Description: cell_activity. The note with it: mouse VEGF promoter reporter activation in mouse cells.
The test system of data set [13] is RAT 24A (synthetic). The data set can be described thus: EMSA.
Sequence of RAT 24A (synthetic) (chain, as listed by the source): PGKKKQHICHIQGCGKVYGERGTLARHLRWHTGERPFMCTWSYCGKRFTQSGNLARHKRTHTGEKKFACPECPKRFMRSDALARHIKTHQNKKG
Data set [14] relates to VOP 30A-4 (VZ+42/+530, mVZ+509) (synthetic). The data set can be described thus: EMSA. Particulars: 170 mM KCl, 1.7 mM MgCl2, Zn.
Sequence of VOP 30A-4 (VZ+42/+530, mVZ+509) (synthetic) (chain, as listed by the source): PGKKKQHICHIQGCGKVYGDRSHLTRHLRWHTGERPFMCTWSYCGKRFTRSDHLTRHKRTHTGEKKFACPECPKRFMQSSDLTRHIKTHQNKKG
In data set [15] the target is VEGF 1* (synthetic) (UniProt P08047). Description: EMSA.
In data set [16] the target is VEGF 1A (synthetic) (UniProt P08047). Description: EMSA.
Data set [17] has as its target VEGF 1 (VZ-8) (synthetic) (UniProt P08047). Description: EMSA.
For data set [18], the system named is HUM 17A (VZ+472) (synthetic). The data set can be described thus: EMSA. The note with it: F3 printed RSDNLTZ, listing RSDNLTQ.
Sequence of HUM 17A (VZ+472) (synthetic) (chain, as listed by the source): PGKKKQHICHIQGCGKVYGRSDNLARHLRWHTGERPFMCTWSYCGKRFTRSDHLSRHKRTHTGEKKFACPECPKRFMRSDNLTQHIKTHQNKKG

A value given as a limit tells only on which side of the number the result lay.

Sequence of PDF 5A (VZ+590) (synthetic) (chain, as listed by the source): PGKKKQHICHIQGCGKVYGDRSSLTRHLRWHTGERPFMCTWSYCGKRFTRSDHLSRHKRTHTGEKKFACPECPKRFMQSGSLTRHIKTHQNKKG
Sequence of EP10A (synthetic) (chain, as listed by the source): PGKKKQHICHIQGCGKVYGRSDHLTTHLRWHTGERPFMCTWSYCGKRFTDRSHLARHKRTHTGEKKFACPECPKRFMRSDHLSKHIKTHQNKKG
Sequence of SAN 16A (synthetic) (chain, as listed by the source): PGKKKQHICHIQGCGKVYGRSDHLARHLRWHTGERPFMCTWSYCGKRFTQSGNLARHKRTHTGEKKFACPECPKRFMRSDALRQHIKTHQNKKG

“AKGGAAGGG (double strand) [SAN 16A target]” came in with a dissociation constant Kd in [1] of 1.03 nM. This lies in the single-digit nanomolar range.

For “GGGGGAGGW (double strand) [HBV 3 target]”, the Kd in [2] came out at 30 nM.

In turn, “GGGGGHGCT (double strand) [ZEN-7A 1 target]” had a Kd in [3] of 0.63 nM. This lies in the sub-nanomolar range.

In data set [4], “KGGGGCTGG (double strand) [EP10A target]” came in with an equilibrium dissociation constant (Kd) of 0.35 nM.

In turn, “GGGGAGGMT (double strand) [VEGF 1D target]” registered a Kd in data set [5] of 2 nM.

“GDGTGGGGN (double strand) [VG 8A target]” came in with an equilibrium dissociation constant (Kd) in data set [6] of 0.35 nM.

In data set [7], “TGAGCGGCGGCAGCGGAGC (double strand) [mVZ+57 target]” gave a dissociation constant (Kd) of under 0.031 nM.

Take “GGDTGGGGG (double strand) [HP38 4A target]”: the Kd in data set [8] was 0.74 nM. This counts as sub-nanomolar.

Consider “GAGKGKGYG (double strand) [GATA82Z678 target]”, for which the Kd in [9] came out at 1.8 nM.

As to “GYAGGGGCC (double strand) [PDF 5A target]”, in data set [10], the dissociation constant (Kd) is 0.23 nM. This lies in the sub-nanomolar range.

Turning to “GGGGVGGAT (double strand) [VEGF 1C target]”, the equilibrium dissociation constant (Kd) in data set [11] stood at 1 nM.

In data set [12], “TGAGCGGCGGCAGCGGAG (double strand) [VG10A/8A target]” showed an activity of 29 fold.

The sequence “GDGGAAGHC (double strand) [RAT 24A target]” had a dissociation constant Kd in [13] of under 0.02 nM.

Sequence “GCTGGGGGCK (double strand) [VZ+42/+530 target]” yielded a Kd in data set [14] of under 0.02 nM.

“GGGGAGGVK (double strand) [VEGF 1 / 1* / 1A target]”: the Kd stood at 3 nM in [15], 0.2 nM in data set [16] and 2.83 nM in data set [17].

“ARGGGGGAG (double strand) [HUM 17A target]” displayed a Kd in data set [18] of under 0.02 nM.
